# Source: ChEMBL document CHEMBL3856203, “β-Lactamases: Why and How” (J Med Chem, 2016)
# B1: Beta-lactamase (Enterobacter cloacae), P05364 (protein)
# chain: MMRKSLCCALLLGISCSALATPVSEKQLAEVVANTITPLMKAQSVPGMAVAVIYQGKPHYYTFGKADIAANKPVTPQTLFELGSISKTFTGVLGGDAIARGEISLDDAVTRYWPQLTGKQWQGIRMLDLATYTAGGLPLQVPDEVTDNASLLRFYQNWQPQWKPGTTRLYANASIGLFGALAVKPSGMPYEQAMTTRVLKPLKLDHTWINVPKAEEAHYAWGYRDGKAVRVSPGMLDAQAYGVKTNVQDMANWVMANMAPENVADASLKQGIALAQSRYWRIGSMYQGLGWEMLNWPVEANTVVEGSDSKVALAPLPVAEVNPPAPPVKASWVHKTGSTGGFGSYVAFIPEKQIGIVMLANTSYPNPARVEAAYHILEALQ
# Substrate: CC(C)(O/N=C(\C(=O)N[C@@H]1C(=O)N2C(C(=O)[O-])=C(C[n+]3ccccc3)CS[C@H]12)c1csc(N)n1)C(=O)O
# Assay: Substrate activity at Enterobacter cloacae beta lactamase P99 expressed in Escherichia coli AS226-51 cells by UV spectrophotometric method
protein,measurement,value
B1,kcat,7 ×10⁻³ /s
